We go through 1 molecule from article PMC8194098.

The assay has as its target Ras:G12V mutant (UniProt P01112). Nature of the assay: pull-down.

B1: RIN1-RA:R629A mutant (natural protein)
chain: MESPGESGAGSPGAPSPSSFTTGHLAREKPAQDPLYDVPNASGGQAGGPQRPGRVVSLRERLLLTRPVWLQLQANAAAALHMLRTEPPGTFLVRKSNTRQCQALCMRLPEASGPSFVSSHYILESPGGVSLEGSELMFPDLVQLICAYCHTRDILLLPLQLPRAIHHAATHKELEAISHLGIEFWSSSLNIKAQRGPAGGPVLPQLKARSPQELDQGTGAALCFFNPLFPGDLGPTKREKFKRSFKVRVSTETSSPLSPPAVPPPPVPVLPGAVPSQTERLPPCQLLRRESSVGYRVPAGSGPSLPPMPSLQEVDCGSPSSSEEEGVPGSRGSPATSPHLGRRRPLLRSMSAAFCSLLAPERQVGRAAAALMQDRHTAAGQLVQDLLTQVRAGPEPQELQGIRQALSRARAMLSAELGPEKLLSPKRLEHVLEKSLHCSVLKPLRPILAARLRRRLAADGSLGRLAEGLRLARAQGPGAFGSHLSLPSPVELEQVRQKLLQLLRTYSPSAQVKRLLQACKLLYMALRTQEGEGAGADEFLPLLSLVLAHCDLPELLLEAEYMSELLEPSLLTGEGGYYLTSLSASLALLSGLGQAHTLPLSPVQELRRSLSLWEQRRLPATHCFQHLLAVAYQDPSSGCTSKTLAVPPEASIATLNQLCATKFRVTQPNTFGLFLYKEQGYHRLPPGALAHRLPTTGYLVYRRAEWPETQGAVTEEEGSGQSEARSRGEEQGCQGDGDAGVKASPRDIREQSETTAEGGQGQAQEGPAQPGEPEAEGSRAAEE
In turn, B1 had a percent inhibition of binding of 80%.
